Target: T1, P220 MMP9-cleavable peptide, Biotin-GGGGGGGGGGPLGVRGKGGC
T1 chain: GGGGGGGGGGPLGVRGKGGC

B1: MMP7 (Active, Human, Recombinant, E. coli, 444270, Merck Millipore) (protein)
chain: YSLFPNSPKWTSKVVTYRIVSYTRDLPHITVDRLVSKALNMWGKEIPLHFRKVVWGTADIMIGFARGAHGDSYPFDGPGNTLAHAFAPGTGLGGDAHFDEDERWTDGSSLGINFLYAATHELGHSLGMGHSSDPNAVMYPTYGNGDPQNFKLSQDDIKGIQKLYGKRSNSRKK
With B1 the “% Cleavage (free AuNC fraction: 7-12 mL), gel filtration chromatography with catalytic activity readout; AuNC-P220-NAv + MMP7/9/13 (12 h)” value was “MMP7: 12.1%”.
